Molecular target: MBP-DHX15-His10 (human, UniProt O43143 1-795)
Experiment: pull-down

MBP-DHX15-His10, sequence (O43143 whole entry): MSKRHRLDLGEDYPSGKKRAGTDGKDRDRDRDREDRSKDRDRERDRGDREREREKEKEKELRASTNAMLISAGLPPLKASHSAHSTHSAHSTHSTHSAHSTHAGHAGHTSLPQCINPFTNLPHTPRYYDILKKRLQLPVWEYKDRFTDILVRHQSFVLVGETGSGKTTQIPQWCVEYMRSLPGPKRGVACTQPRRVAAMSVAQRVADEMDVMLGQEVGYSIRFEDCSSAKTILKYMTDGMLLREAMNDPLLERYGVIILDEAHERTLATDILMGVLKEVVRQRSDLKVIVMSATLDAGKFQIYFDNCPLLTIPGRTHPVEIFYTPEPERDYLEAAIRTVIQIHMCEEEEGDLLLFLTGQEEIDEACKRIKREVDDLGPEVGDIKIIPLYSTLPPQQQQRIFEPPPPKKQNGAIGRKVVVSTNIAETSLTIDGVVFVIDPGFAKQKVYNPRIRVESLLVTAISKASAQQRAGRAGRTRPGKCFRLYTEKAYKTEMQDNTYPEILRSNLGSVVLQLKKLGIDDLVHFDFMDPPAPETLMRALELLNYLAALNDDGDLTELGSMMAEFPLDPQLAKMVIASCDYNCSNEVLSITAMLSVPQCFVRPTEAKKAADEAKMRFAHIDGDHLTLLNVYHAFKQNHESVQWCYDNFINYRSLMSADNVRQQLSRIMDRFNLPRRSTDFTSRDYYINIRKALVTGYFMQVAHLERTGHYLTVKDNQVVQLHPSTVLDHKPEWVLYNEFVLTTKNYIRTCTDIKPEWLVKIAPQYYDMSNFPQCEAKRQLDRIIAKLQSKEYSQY

binding result: binds
Binder: GMKFAEEQLLKHGWTQGKGLGRKENGITQALRVTLKQDTHGVGHDPA (domain or fragment) [ZZ-GPATCH4GP-His7 (G-patch domain of GPATCH4, amino acids 11 to 57)]
